Results published in publication PMC5004165.

Target: T1, NF-kB p50 homodimer (UniProt P19838)
T1 sequence: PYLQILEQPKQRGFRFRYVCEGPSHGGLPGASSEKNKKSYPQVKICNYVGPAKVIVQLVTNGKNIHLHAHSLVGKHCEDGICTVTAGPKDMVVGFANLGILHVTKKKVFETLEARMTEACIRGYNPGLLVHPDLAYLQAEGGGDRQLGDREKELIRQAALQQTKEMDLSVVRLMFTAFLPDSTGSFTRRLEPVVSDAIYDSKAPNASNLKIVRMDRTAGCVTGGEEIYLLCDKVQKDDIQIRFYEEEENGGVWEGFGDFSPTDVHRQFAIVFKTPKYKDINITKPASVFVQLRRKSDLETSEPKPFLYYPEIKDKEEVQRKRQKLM
Experiment: SPR
Conditions: EMSA: 10 mM Tris-HCl pH 7.5, 50 mM NaCl, 1 mM DTT, 1 mM EDTA, BSA (printed 10 mg/mL), 1% NP-40, 5% glycerol, poly(dI-dC), 20 C 45 min, SPR: 10 mM Tris-HCl pH 7.; for binding signal (% of unplatinated plateau): steady state

[1] = BBR3464 adducts, 1 per duplex, global
[2] = transplatin adducts, 1 per duplex, global

Sequence: CCTACCAAGTCTGAGGGGACTTTCCCAGGC (double strand) [DUPLEX-kB(SPR-BIO) BBR3464]
- Kd [1]: 3.99 nM
- binding signal (% of unplatinated plateau) [1]: 21

Sequence: CCTACCAAGTCTGAGGGGACTTTCCCAGGC (double strand) [DUPLEX-kB(SPR-BIO) cisplatin]
- Kd (cisplatin adducts, 1 per duplex, global): 2.38 nM

Sequence: CCTACCAAGTCTGAGGGGACTTTCCCAGGC (double strand) [DUPLEX-kB(SPR-BIO) transplatin]
- binding signal (% of unplatinated plateau) [2]: 88
- Kd [2]: 1.99 nM

Sequence: CCTACCAAGTCTGAGGGGACTTTCCCAGGC (double strand) [DUPLEX-kB(SPR-BIO)]
- Kd: 1.96 nM
